Reference: patent US20230203469A1

Key:
[1] = molecular target: T1, FRETS-VWF73 substrate, P04275
T1 chain: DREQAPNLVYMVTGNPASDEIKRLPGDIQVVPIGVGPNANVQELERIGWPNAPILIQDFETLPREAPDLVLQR

[2] = molecular target: recombinant VWF (full-length, multimeric rVWF), P04275

B1: Q97 ADAMTS13 (wildtype recombinant ADAMTS13) (protein)
chain: AAGGILHLELLVAVGPDVFQAHQEDTERYVLTNLNIGAELLRDPSLGAQFRVHLVKMVILTEPEGAPNITANLTSSLLSVCGWSQTINPEDDTDPGHADLVLYITRFDLELPDGNRQVRGVTQLGGACSPTWSCLITEDTGFDLGVTIAHEIGHSFGLEHDGAPGSGCGPSGHVMASDGAAPRAGLAWSPCSRRQLLSLLSAGRARCVWDPPRPQPGSAGHPPDAQPGLYYSANEQCRVAFGPKAVACTFAREHLDMCQALSCHTDPLDQSSCSRLLVPLLDGTECGVEKWCSKGRCRSLVELTPIAAVHGRWSSWGPRSPCSRSCGGGVVTRRRQCNNPRPAFGGRACVGADLQAEMCNTQACEKTQLEFMSQQCARTDGQPLRSSPGGASFYHWGAAVPHSQGDALCRHMCRAIGESFIMKRGDSFLDGTRCMPSGPREDGTLSLCVSGSCRTFGCDGRMDSQQVWDRCQVCGGDNSTCSPRKGSFTAGRAREYVTFLTVTPNLTSVYIANHRPLFTHLAVRIGGRYVVAGKMSISPNTTYPSLLEDGRVEYRVALTEDRLPRLEEIRIWGPLQEDADIQVYRRYGEEYGNLTRPDITFTYFQPKPRQAWVWAAVRGPCSVSCGAGLRWVNYSCLDQARKELVETVQCQGSQQPPAWPEACVLEPCPPYWAVGDFGPCSASCGGGLRERPVRCVEAQGSLLKTLPPARCRAGAQQPAVALETCNPQPCPARWEVSEPSSCTSAGGAGLALENETCVPGADGLEAPVTEGPGSVDEKLPAPEPCVGMSCPPGWGHLDATSAGEKAPSPWGSIRTGAQAAHVWTPAAGSCSVSCGRGLMELRFLCMDSALRVPVQEELCGLASKPGSRREVCQAVPCPARWQYKLAACSVSCGRGVVRRILYCARAHGEDDGEEILLDTQCQGLPRPEPQEACSLEPCPPRWKVMSLGPCSASCGLGTARRSVACVQLDQGQDVEVDEAACAALVRPEASVPCLIADCTYRWHVGTWMECSVSCGDGIQRRRDTCLGPQAQAPVPADFCQHLPKPVTVRGCWAGPCVGQGTPSLVPHEEAAAPGRTTATPAGASLEWSQARGLLFSPAPQPRRLLPGPQENSVQSSACGRQHLEPTGTIDMRGPGQADCAVAIGRPLGEVVTLRVLESSLNCSAGDMLLLWGRLTWRKMCRKLLDMTFSSKTNTLVVRQRCGRPGGGVLLRYGSQLAPETFYRECDMQLFGPWGEIVSPSLSPATSNAGGCRLFINVAPHARIAIHALATNMGAGTEGANASYILIRDTHSLRTTAFHGQQVLYWESESSQAEMEFSEGFLKAQASLRGQYWTLQSWVPEMQDPQSWKGKEGT
- Specific rADAMTS13 activity (activity per total protein by UV) [1]: 1750 IU/mg
- rADAMTS13 Activity (FRETS VWF73) [1]: 2210 IU/mL
- Degradation of full-length rVWF under denaturing conditions (VWF multimer analysis) [2]: Comparable
